These results are taken from article PMC7603899 (Journal of molecular biology, 2020).

This data set concerns the molecule itself. Briefly: crystal structure.

B1: Atg11 residues 699-800 (Atg11_(699-800)) (domain or fragment, S. cerevisiae, UniProt Q12527 699-800, looked up)
chain: NNHQIQELESNVDDLLHQLQLLKEENNRKSMQISEMGKKISDLEVEKTAYRETLTNLNQELARLTNEEQSHRTEIFTLNASFKKQLNDIISQDNEKIEKLTG
Consider B1, for which the stoichiometry N (in general, the number of molecules, sites or subunits per partner or assembly) came to 2.
